{"source": "patent US20170081400A1", "about": "(CEPHALON, published 2017)", "binders": {"B1": {"name": "320-524 (antibody, human IgG1, name in Kabat numbering, V domains shown)", "VH": "QVQLVQSGAEVKKPGASVKVSCKASGYTFTSYDINWVRQAPGQGLEWMGWLNPNQGNTGYAQKFQGRVTMTADRSTSTAYMELSSLRSEDTAVYYCAREVPETAAFEYWGQGTLVTVSS", "VL": "QSVLTQPPSVSGAPGQRVTISCTSSSSDIGAGLGVHWYQQLPGTAPKLLIEGYYNRPSGVPDRFSGSKSGTSASLTITGLLPEDEGDYYCQSYDGTLSALFGGGTKLTVLG", "notes": "full-length human IgG1, lambda"}, "B2": {"name": "320-525 (antibody, human IgG1, name in Kabat numbering, V domains shown)", "VH": "B1 VH with Q55D", "VL": "B1 VL", "notes": "as for B1"}, "B3": {"name": "320-526 (antibody, human IgG1, name in Kabat numbering, V domains shown)", "VH": "B1 VH with Q55H", "VL": "B1 VL", "notes": "as for B1"}, "B4": {"name": "320-527 (antibody, human IgG1, name in Kabat numbering, V domains shown)", "VH": "B1 VH with Q55K", "VL": "B1 VL", "notes": "as for B1"}, "B5": {"name": "320-528 (antibody, human IgG1, name in Kabat numbering, V domains shown)", "VH": "B1 VH with Q55L", "VL": "B1 VL", "notes": "as for B1"}, "B6": {"name": "320-529 (antibody, human IgG1, name in Kabat numbering, V domains shown)", "VH": "B1 VH with Q55W", "VL": "B1 VL", "notes": "as for B1"}, "B7": {"name": "320-530 (antibody, human IgG1, name in Kabat numbering, V domains shown)", "VH": "B1 VH with Q55Y", "VL": "B1 VL", "notes": "as for B1"}, "B8": {"name": "320-531 (antibody, human IgG1, name in Kabat numbering, V domains shown)", "VH": "B1 VH with Q55S, G56A", "VL": "B1 VL", "notes": "as for B1"}, "B9": {"name": "320-532 (antibody, human IgG1, name in Kabat numbering, V domains shown)", "VH": "B1 VH with Q55S, G56S", "VL": "B1 VL", "notes": "as for B1"}, "B10": {"name": "320-533 (antibody, human IgG1, name in Kabat numbering, V domains shown)", "VH": "B1 VH with Q55S, G56Q", "VL": "B1 VL", "notes": "as for B1"}, "B11": {"name": "320-534 (antibody, human IgG1, name in Kabat numbering, V domains shown)", "VH": "B1 VH with Q55S, G56D", "VL": "B1 VL", "notes": "as for B1"}, "B12": {"name": "320-535 (antibody, human IgG1, name in Kabat numbering, V domains shown)", "VH": "B1 VH with Q55S, G56H", "VL": "B1 VL", "notes": "as for B1"}, "B13": {"name": "320-536 (antibody, human IgG1, name in Kabat numbering, V domains shown)", "VH": "B1 VH with Q55S, G56K", "VL": "B1 VL", "notes": "as for B1"}, "B14": {"name": "320-537 (antibody, human IgG1, name in Kabat numbering, V domains shown)", "VH": "B1 VH with Q55S, G56L", "VL": "B1 VL", "notes": "as for B1"}, "B15": {"name": "320-538 (antibody, human IgG1, name in Kabat numbering, V domains shown)", "VH": "B1 VH with Q55S, G56W", "VL": "B1 VL", "notes": "as for B1"}, "B16": {"name": "320-539 (antibody, human IgG1, name in Kabat numbering, V domains shown)", "VH": "B1 VH with Q55S, N57A", "VL": "B1 VL", "notes": "as for B1"}, "B17": {"name": "320-540 (antibody, human IgG1, name in Kabat numbering, V domains shown)", "VH": "B1 VH with Q55S, N57S", "VL": "B1 VL", "notes": "as for B1"}}, "key": {"[1]": {"target": "T1, human TL1A extracellular domain with N-terminal HIS and FLAG tag (human, UniProt O95150 72-251)", "T1 construct": "the whole entry is named; also called TNFSF15", "T1 sequence": "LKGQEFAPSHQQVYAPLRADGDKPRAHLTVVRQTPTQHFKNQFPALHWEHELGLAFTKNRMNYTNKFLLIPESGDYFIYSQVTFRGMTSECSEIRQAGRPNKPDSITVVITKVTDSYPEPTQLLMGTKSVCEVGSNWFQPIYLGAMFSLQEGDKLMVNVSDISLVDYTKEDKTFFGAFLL", "assay": "SPR Run 7, antibody on Protein A, TL1A 5 ug/mL, timepoint 44", "source_text": "(§1) 1.5. Antibody expression and antigen binding as determined by SPR. Using a CM5 sensor chip (GE Healthcare) Protein A (Pierce) was coupled to the chip surface using an amine coupling kit (GE Healthcare). Protein A was coupled on flow cell 1 and 2 (or alternatively 3 and 4) using a BIACORE® T200. […] The amount of supernatant or purified protein (as well as the concentration) injected during the capture stage varied between runs and is specified in the header of the Tables 3-11. At the end of injection of the supernatant or purified antibody the change in response units was measured. This value was reported as Capture Level in Tables 3-11. […] The response units were measured prior to the end of the dissociation phase. […] The sensorgrams were double referenced (flow cell 2 is subtracted from flow cell 1 and a buffer blank). As there were a large number of antibody variants to screen, these were screened across different runs (Tables 3-11). […] A summary of the conditions used in each run is below:\n(§2) 2.1. […] In some experiment the antibodies were purified using Protein A chromatography (See 1.4) and purified antibodies were used in BIACORE® (GE Healthcare) experiments."}, "[2]": {"target": "T1, human TL1A extracellular domain with …", "assay": "SPR Run 7, antibody on Protein A, TL1A 5 ug/mL, timepoint 220", "source_text": "as §1, §2"}}, "note": "Numbering of substitutions follows the chain as printed.", "data": [{"binder": "B1", "values": [{"measurement": "TL1A Binding Level (Early)", "setting": "[1]", "value": 55, "unit": "RU"}, {"measurement": "TL1A Binding Level (Late)", "setting": "[2]", "value": 49, "unit": "RU"}]}, {"binder": "B2", "values": [{"measurement": "TL1A Binding Level (Early)", "setting": "[1]", "value": 33, "unit": "RU"}, {"measurement": "TL1A Binding Level (Late)", "setting": "[2]", "value": 17, "unit": "RU"}]}, {"binder": "B3", "values": [{"measurement": "TL1A Binding Level (Early)", "setting": "[1]", "value": 134, "unit": "RU"}, {"measurement": "TL1A Binding Level (Late)", "setting": "[2]", "value": 124, "unit": "RU"}]}, {"binder": "B4", "values": [{"measurement": "TL1A Binding Level (Early)", "setting": "[1]", "value": 146, "unit": "RU"}, {"measurement": "TL1A Binding Level (Late)", "setting": "[2]", "value": 136, "unit": "RU"}]}, {"binder": "B5", "values": [{"measurement": "TL1A Binding Level (Early)", "setting": "[1]", "value": 121, "unit": "RU"}, {"measurement": "TL1A Binding Level (Late)", "setting": "[2]", "value": 108, "unit": "RU"}]}, {"binder": "B6", "values": [{"measurement": "TL1A Binding Level (Early)", "setting": "[1]", "value": 94, "unit": "RU"}, {"measurement": "TL1A Binding Level (Late)", "setting": "[2]", "value": 83, "unit": "RU"}]}, {"binder": "B7", "values": [{"measurement": "TL1A Binding Level (Early)", "setting": "[1]", "value": 77, "unit": "RU"}, {"measurement": "TL1A Binding Level (Late)", "setting": "[2]", "value": 67, "unit": "RU"}]}, {"binder": "B8", "values": [{"measurement": "TL1A Binding Level (Early)", "setting": "[1]", "value": 66, "unit": "RU"}, {"measurement": "TL1A Binding Level (Late)", "setting": "[2]", "value": 61, "unit": "RU"}]}, {"binder": "B9", "values": [{"measurement": "TL1A Binding Level (Early)", "setting": "[1]", "value": 10, "unit": "RU"}, {"measurement": "TL1A Binding Level (Late)", "setting": "[2]", "value": 7, "unit": "RU"}]}, {"binder": "B10", "values": [{"measurement": "TL1A Binding Level (Early)", "setting": "[1]", "value": 93, "unit": "RU"}, {"measurement": "TL1A Binding Level (Late)", "setting": "[2]", "value": 86, "unit": "RU"}]}, {"binder": "B11", "values": [{"measurement": "TL1A Binding Level (Early)", "setting": "[1]", "value": 109, "unit": "RU"}, {"measurement": "TL1A Binding Level (Late)", "setting": "[2]", "value": 102, "unit": "RU"}]}, {"binder": "B12", "values": [{"measurement": "TL1A Binding Level (Early)", "setting": "[1]", "value": 126, "unit": "RU"}, {"measurement": "TL1A Binding Level (Late)", "setting": "[2]", "value": 115, "unit": "RU"}]}, {"binder": "B13", "values": [{"measurement": "TL1A Binding Level (Early)", "setting": "[1]", "value": 115, "unit": "RU"}, {"measurement": "TL1A Binding Level (Late)", "setting": "[2]", "value": 105, "unit": "RU"}]}, {"binder": "B14", "values": [{"measurement": "TL1A Binding Level (Early)", "setting": "[1]", "value": 133, "unit": "RU"}, {"measurement": "TL1A Binding Level (Late)", "setting": "[2]", "value": 123, "unit": "RU"}]}, {"binder": "B15", "values": [{"measurement": "TL1A Binding Level (Early)", "setting": "[1]", "value": 54, "unit": "RU"}, {"measurement": "TL1A Binding Level (Late)", "setting": "[2]", "value": 49, "unit": "RU"}]}, {"binder": "B16", "values": [{"measurement": "TL1A Binding Level (Early)", "setting": "[1]", "value": 172, "unit": "RU"}, {"measurement": "TL1A Binding Level (Late)", "setting": "[2]", "value": 159, "unit": "RU"}]}, {"binder": "B17", "values": [{"measurement": "TL1A Binding Level (Early)", "setting": "[1]", "value": 100, "unit": "RU"}, {"measurement": "TL1A Binding Level (Late)", "setting": "[2]", "value": 92, "unit": "RU"}]}]}
